Laboratory results published in publication PMC12052123, “Investigating the quaternary structure of a homomultimeric catechol 1,2-dioxygenase: An integrative structural biology study” (PLOS One, 2025).

Target: the molecule itself
Assay: native gel or EMSA; semi-native PAGE (8%), Tris-Gly buffer system without detergent or denaturing agents, 100 V, 18 °C, Coomassie; lyophilized and reconstituted SfC12DO

B1: catechol 1,2-dioxygenase from Stutzerimonas frequens GOM2 (enzyme, UniProt A0ABX6XR78 1-312, looked up)
chain: MTVKISHTNDVQQFFKEASGFNNDAGSSRLKTVINRVLADTARIIEDLEITQDEFWKAVDYINRLGGRHEAGLLVAGLGLEHYLDLLQDAKDEQEGLVGGTPRTIEGPLYVAGAPIAEGEVRMDDDSEEGVATTMFLQGRVTGPDGKPLAGATVDLWHANTKGNYSYFDKSQSEYNLRRRIVTDENGYYRARSIVPSGYGCSPDGPTQEVLDMLGRHGQRPAHIHFFISAPGHRHLTTQINLAGDKYLWDDFAYATRDGLVGDIRFIDDAEAARARGVQGRFAEVDFDFQLQKAPAPQAEQRSKRPRALQQA
notes: catechol 1,2-dioxygenase encoded by the CatA gene of Stutzerimonas frequens GOM2 (Pseudomonas stutzeri GOM2); regions are labelled up to residue 312; Non-heme Fe3+ enzyme; Number of copies depends on the sample: dimer when non-lyophilized; dimer, tetramer, (hexamer), octamer and >20-mer after lyophilization and reconstitution; also called SfC12DO; PsC12DO; source: used non-lyophilized, or …
stoichiometry N: 6
